Target: reconstituted 26S proteasome with LD555 donor dye on Rpn9 (F2AzF) and LD655 acceptor dye on Rpt5 (Q49AzF), wild type (yeast | not stated | yeast (endogenous gene tagged in strain W303) | yeast (endogenous in W303)) (UniProt P33299)
Sequence of UniProt P33299 (P33299 whole entry, looked up): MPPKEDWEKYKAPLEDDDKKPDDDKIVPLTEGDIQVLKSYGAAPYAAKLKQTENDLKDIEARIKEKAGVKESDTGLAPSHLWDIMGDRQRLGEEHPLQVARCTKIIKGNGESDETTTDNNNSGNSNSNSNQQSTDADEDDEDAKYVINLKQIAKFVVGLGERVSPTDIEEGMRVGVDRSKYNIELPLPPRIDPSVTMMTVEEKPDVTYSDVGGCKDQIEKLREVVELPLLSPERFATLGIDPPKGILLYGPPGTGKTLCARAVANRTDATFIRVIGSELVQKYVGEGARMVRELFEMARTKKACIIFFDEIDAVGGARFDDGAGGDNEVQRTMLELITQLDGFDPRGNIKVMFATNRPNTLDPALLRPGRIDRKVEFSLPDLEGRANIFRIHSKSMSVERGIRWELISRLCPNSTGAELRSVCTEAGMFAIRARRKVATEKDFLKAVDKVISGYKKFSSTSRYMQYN

rate of the s1-to-non-s1 transition (ks1) of the substrate-free proteasome in the single-molecule FRET conformational dynamics assay; 1.2 s^-1 without chains: 0.4 s⁻¹
Substance: unanchored K48-linked ubiquitin tetramer (from UniProt P0CG63 1-76)

— article PMC9788759
